Data reported in article PMC12861478, “Amino acid transporter CsBAT links GABA accumulation to flavonoid metabolism in Camellia sinensis” (Horticulture Research, 2025).

Columns and labels:
Test in all cases: cells, lysate or membranes
[1] = substrate: N[C@@H](CCC(=O)O)C(=O)O; settings: transport; nitrogen-starved cells in nitrogen-free YNB
[2] = substrate: NCCCC(=O)O; settings: transport; nitrogen-starved cells in nitrogen-free YNB; 0.09375–8 mM GABA; H+-dependent
[3] = substrate: NC(=O)CC[C@H](N)C(=O)O; settings: transport; nitrogen-starved cells in nitrogen-free YNB
[4] = substrate: CCNC(=O)CC[C@H](N)C(=O)O; settings: transport; nitrogen-starved cells in nitrogen-free YNB

B1: CsBAT (Camellia sinensis) (protein)
chain: MGWHSHSHVQNGDSSLDTGHTRLHELGYKQELKRDLSVVSNFAFSFSIISVLTGITTLYNTGLNYGGPVVLVYGWLIAGVFTMIVGLSMAEICSSYPTSGGLYYWSAKLAGPSWAPFASWLTGWFNIVGQWAVTTSVDFSLAQLIQVIILLSTGGKNGGGYQASKYVVIGIHGGILLLHAIINSLPITWLSLFGQFAALWNLIGVFVLMILIPTVAKEKASAKFVFTFFNTDNGDGINSKVYIFVLGLLMSQYTLTGYDASAHMTEETKSADKNGPKGIISAIGISVIVGWGYLLGVTFAVTKIPNLLSENNDAGGYAIAEVFYLAFKNRYGNGIGGIICLGVVAVAIFFCGMSSITSNSRMAYAFSRDGAMPLSSVWHKVNKHEVPLNAVWLSAIIAFCMALTSLGSIVAFQAMVSIATIGLYIAYALPIFFRVTLARKSFTPGPFNLGRYGVLVGWIAVLWVATISVLFSLPVSYPITDQTLNYTPVAVGGLLILTVASWIFSARHWFKGPITNIDDVL
- Km [1]: 580 ± 50 µM
- Km [2]: 290 ± 20 µM
- Km [3]: 400 ± 40 µM
- Km [4]: 360 ± 30 µM
